First the molecules themselves.
B1: CDS2 (parent)
chain: IHSIALSTFASLIGPFGGFFASGF
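Note: lentivirally expressed fusions sorted by FACS into six bins by GFP to DsRed ratio, PSI derived from sequencing read proportions per bin multiplied by bin number.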

Variants of B1 are the subject of this data set. Kind of data set: protein stability index of a GFP-peptide fusion (GPS, HEK-293T) (PSI 1-6); higher = more stable. As to conditions: c terminus: a fixed tail appended.
Take IHSLALSTFASLIGPFGGFFASGF: the protein stability index was determined as 1.57.
In the case of IHSSALSTFASLIGPFGGFFASGF it was 3.51; in that of IHSMALSTFASLIGPFGGFFASGF, 2.86; in that of IHSTALSTFASLIGPFGGFFASGF, 3.82.
As to IHSWALSTFASLIGPFGGFFASGF, the protein stability index turned out to be 2.65.
In the case of FHSIALSTFASLIGPFGGFFASGF it was 2.15; in that of THSIALSTFASLIGPFGGFFASGF, 3.44.
In the case of LHSIALSTFASLIGPFGGFFASGF it was 2.63; in that of SHSIALSTFASLIGPFGGFFASGF, 2.57.
On to WHSIALSTFASLIGPFGGFFASGF, for which the protein stability index was determined as 3.6.
In the case of PHSIALSTFASLIGPFGGFFASGF it was 3.96; in that of KHSIALSTFASLIGPFGGFFASGF, 2.65; in that of VHSIALSTFASLIGPFGGFFASGF, 2.61.
Next, CHSIALSTFASLIGPFGGFFASGF: 3.03; IHSIALSTFAYLIGPFGGFFASGF: 4.15.
In the case of IHSIALSTFALLIGPFGGFFASGF it was 2.8; in that of IHSIALSTFAVLIGPFGGFFASGF, 1.89.
IHSIALSTFAGLIGPFGGFFASGF: the protein stability index came to 2.9.
Regarding IHSIALSTFANLIGPFGGFFASGF, the protein stability index was found to be 2.33.
Next, IHSIALSTFAWLIGPFGGFFASGF: 5.33; IHSIALSTFARLIGPFGGFFASGF: 2.81.
Next, IHSIALSTFAHLIGPFGGFFASGF: 2.75; IHSIALSTFADLIGPFGGFFASGF: 2.9; IHSIALSTFASLIGPFGGFFASVF: 2.14.
In the case of IHSIALSTFASLIGPFGGFFASEF it was 4.01; in that of IHSIALSTFASLIGPFGGFFASLF, 1.42; in that of IHSIALSTFASLIGPFGGFFASPF, 2.73.
On to IHSIALSTFASLIGPFGGFFASHF, for which the protein stability index is 2.2.
In the case of IHSIALSTFASLIGPFGGFFASIF it was 1.59.
Next, IHSIALSTFASLIGPFGGFFASNF: 3.46; IHSIALSTFASLIGPFGGFFASCF: 2.54; IHSIALHTFASLIGPFGGFFASGF: 3.45.
In the case of IHSIALMTFASLIGPFGGFFASGF it was 3.09.
Turning to IHSIALGTFASLIGPFGGFFASGF, the protein stability index stood at 3.09.
Next, IHSIALWTFASLIGPFGGFFASGF: 3.82; IHSIALYTFASLIGPFGGFFASGF: 2.65.
In the case of IHSIALVTFASLIGPFGGFFASGF it was 3; in that of IHSIALITFASLIGPFGGFFASGF, 2.94; in that of IHSIALNTFASLIGPFGGFFASGF, 2.5.
Turning to IHDIALSTFASLIGPFGGFFASGF, the protein stability index was found to be 3.74.
Next, IHYIALSTFASLIGPFGGFFASGF: 2.06; IHEIALSTFASLIGPFGGFFASGF: 3.44.
Next, IHVIALSTFASLIGPFGGFFASGF: 3.02; IHFIALSTFASLIGPFGGFFASGF: 3.44; IHSIALSTFASLIGPFGGKFASGF: 3.44.
Next, IHSIALSTFASLIGPFGGHFASGF: 2.47; IHSIALSTFASLIGPFGGNFASGF: 3.42; IHSIALSTFASLIGPFGGIFASGF: 2.97.
For IHSIALSTFASLIGPFGGGFASGF, the protein stability index was 3.81.
Next, IHSIALSTFASLIGPFGGVFASGF: 2.86.
Next, IHSIALSTFASHIGPFGGFFASGF: 3.22; IHSIALSTFASGIGPFGGFFASGF: 3.36; IHSIALSTFASNIGPFGGFFASGF: 2.95.
Next, IHSIALSTFASDIGPFGGFFASGF: 3.44; IHSIALSTFASAIGPFGGFFASGF: 2.82; IHSIALSTFASYIGPFGGFFASGF: 2.37.
For the variant IHSIALSTFASPIGPFGGFFASGF, the protein stability index amounted to 2.99.
In the case of IHSIALSTFASQIGPFGGFFASGF it was 4.09; in that of IHSIALSTFASTIGPFGGFFASGF, 1.49.
In the case of IHSIALSTFASLIGPFGGFFACGF it was 2.86; in that of IHSIALSTFASLIGPFGGFFAFGF, 3.51; in that of IHSIALSTFASLIGPFGGFFAVGF, 2.54.
On to IHSIALSTFASLIGPFGGFFALGF, for which the protein stability index is 2.7.
As to IHSIALSTFASLIGPFGGFFAPGF, the protein stability index amounted to 3.67.
For the variant IHSIALSTFASLIGPFGGFFAGGF, the protein stability index came out at 3.59.
In the case of IHSIALSTFASLIGPFGGFFANGF it was 2.57; in that of IHSIALSTFASLIGPFGGFFRSGF, 2.9; in that of IHSIALSTFASLIGPFGGFFCSGF, 3.33.
With IHSIALSTFASLIGPFGGFFVSGF, the protein stability index was 2.06.
In the case of IHSIALSTFASLIGPFGGFFDSGF it was 4.2; in that of IHSIALSTFASLIGPFGGFFKSGF, 2.22.
In the case of IHSIALSTFASLIGPFGGFFMSGF it was 2.69; in that of IHSIALSTFASLIGPFGGFFLSGF, 2.75; in that of IHSIALSTFASLIGPFGGFFSSGF, 2.54.
In the case of IHSIALSQFASLIGPFGGFFASGF it was 1.86; in that of IHSIALSWFASLIGPFGGFFASGF, 2.58.
As to IHSIALSNFASLIGPFGGFFASGF, the protein stability index was 3.16.
In the case of IHSIALSPFASLIGPFGGFFASGF it was 3.52.
Next, IHSIALSDFASLIGPFGGFFASGF: 2.14.
Next, IHSIALSIFASLIGPFGGFFASGF: 1.82; IHSIALSHFASLIGPFGGFFASGF: 3.82.
Take IHSIALSMFASLIGPFGGFFASGF: the protein stability index worked out at 2.49.
In the case of IPSIALSTFASLIGPFGGFFASGF it was 1.95; in that of IKSIALSTFASLIGPFGGFFASGF, 3.27; in that of IISIALSTFASLIGPFGGFFASGF, 2.41.
Next, IWSIALSTFASLIGPFGGFFASGF: 2; IGSIALSTFASLIGPFGGFFASGF: 3.52.
In the case of ICSIALSTFASLIGPFGGFFASGF it was 4.54.
Turning to IYSIALSTFASLIGPFGGFFASGF, the protein stability index was 3.65.
In the case of ITSIALSTFASLIGPFGGFFASGF it was 3.98; in that of IHSIALSTFASLIGMFGGFFASGF, 3.79.
Consider IHSIALSTFASLIGSFGGFFASGF, for which the protein stability index is 2.34.
In the case of IHSIALSTFASLIGTFGGFFASGF, the protein stability index is 3.98.
In the case of IHSIALSTFASLIGFFGGFFASGF it was 2.46.

These data come from the supplement of paper PMC10567573.
